This is an account of results in the RNAGym collection of RNA variant scans (doi:10.1093/molbev/msab373).

The chains are these.
B1: Azoarcus group I ribozyme (parent)
chain: GUGCCUUGCGCCGGGAAACCACGCAAGGGAUGGUGUCAAAUUCGGCGAAACCUAAGCGCCCGCCCGGGCGUAUGGCAACGCCGAGCCAAGCUUCGGCGCCUGCGCCGAUGAAGGUGUAGAGACUAGACGGCACCCACCUAAGGCAAACGCUAUGGUGAAGGCAUAGUCCAGGGAGUGGCGAAAGUCACACAAACCGG

Variants of B1 are the subject of the series. In words: reverse-splicing fitness (ratio to wild type); higher = more active; in vitro selection; Mg2+ level not given. Summed up: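 An in vitro group I ribozyme library with randomized positions was T7-transcribed and gel-purified. In triplicate, 10 pmol RNA in EPPS pH 7.5 was reacted with 50 pmoles of a 30-nt RNA substrate for 1 h at 37 °C across several added MgCl2 levels (1–48 mM), then stopped with EDTA. Products were reverse transcribed from a substrate-complementary primer, PCR-amplified and sequenced (HiSeq 4000). Fitness is a variant's read proportion after selection over that before, normalised to wild type.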
Turning to A111G A145U C150G C169G, the reverse-splicing fitness was 0.0152.

With A111U A120C A145C C150U C169A U176C, the reverse-splicing fitness amounted to 0.00539.

In the case of A111U A120C A145C C150U C169A U176G, the reverse-splicing fitness came to 0.00529.

On to A111U A120C A145C C150U C169A U176A, for which the reverse-splicing fitness came out at 0.00887.

As for A111G A145U C150A U176C, the reverse-splicing fitness was found to be 0.237.

As to A111G A145U C150A U176G, the reverse-splicing fitness was 0.121.

Take A111G A145U C150A U176A: the reverse-splicing fitness was found to be 0.224.

For the variant A111G A145U C150G, the reverse-splicing fitness was 0.449.

As for A111G A145U C150A, the reverse-splicing fitness was found to be 0.365.

Turning to A111G A145U C150U, the reverse-splicing fitness came to 0.952.

As for A111G A145G C150G C169G U176G, the reverse-splicing fitness turned out to be 0.00506.

In the case of A111G A145G C150G C169G U176A, the reverse-splicing fitness turned out to be 0.00939.

In the case of A111G A145G C150G C169G U176C, the reverse-splicing fitness is 0.00813.

For the variant A111G A145G C150A C169G U176C, the reverse-splicing fitness was 0.0276.

For A111G A145G C150A C169G U176G, the reverse-splicing fitness stood at 0.00564.

Consider A111G A145G C150A C169G U176A, for which the reverse-splicing fitness turned out to be 0.0234.

A111G C150G U176A: the reverse-splicing fitness came out at 0.0982.

With A111G C150G U176C, the reverse-splicing fitness amounted to 0.166.

A111G C150G U176G: the reverse-splicing fitness worked out at 0.0168.

Take A111G C150A: the reverse-splicing fitness is 0.462.

With A111G C150G, the reverse-splicing fitness was 0.363.

Take A111G C150U: the reverse-splicing fitness is 0.905.

Take A111G A145C C169G U176C: the reverse-splicing fitness turned out to be 0.0431.

For the variant A111G A145C C169G U176A, the reverse-splicing fitness stood at 0.0344.

Turning to A111G A145C C169G U176G, the reverse-splicing fitness came to 0.00491.

In the case of A111G A145U C150U U176A, the reverse-splicing fitness worked out at 0.677.

For the variant A111G A145U C150U U176G, the reverse-splicing fitness was found to be 0.317.

Turning to A111G A145U C150U U176C, the reverse-splicing fitness was determined as 0.697.

In the case of A111U A120C, the reverse-splicing fitness was determined as 0.587.

Regarding A111U A120C A145G C150G C169G U176A, the reverse-splicing fitness came to 0.0094.

Turning to A111U A120C A145G C150G C169G U176G, the reverse-splicing fitness is 0.00555.

Regarding A111U A120C A145G C150G C169G U176C, the reverse-splicing fitness stood at 0.0106.

With A111G A145U C150A C169A U176C, the reverse-splicing fitness was found to be 0.00843.

As to A111G A145U C150A C169A U176A, the reverse-splicing fitness stood at 0.0121.

Take A111G A145U C150A C169A U176G: the reverse-splicing fitness was found to be 0.00565.

A111U A120C A145G C150G C169U U176A: the reverse-splicing fitness amounted to 0.0118.

Consider A111U A120C A145G C150G C169U U176C, for which the reverse-splicing fitness was 0.0127.

Take A111U A120C A145G C150G C169U U176G: the reverse-splicing fitness was found to be 0.00652.

A111G A145U C150G U176G: the reverse-splicing fitness was determined as 0.0305.

Consider A111G A145U C150G U176A, for which the reverse-splicing fitness worked out at 0.17.

A111G A145U C150G U176C: the reverse-splicing fitness was found to be 0.226.

As to A111G A145G C150A C169U U176G, the reverse-splicing fitness is 0.00641.

Consider A111G A145G C150A C169U U176A, for which the reverse-splicing fitness is 0.0202.

For A111G A145G C150A C169U U176C, the reverse-splicing fitness turned out to be 0.0251.

In the case of A111U A120C A145C C150A C169A U176C, the reverse-splicing fitness was found to be 0.00583.

Consider A111U A120C A145C C150A C169A U176G, for which the reverse-splicing fitness was found to be 0.00536.

Take A111U A120C A145C C150A C169A U176A: the reverse-splicing fitness was 0.0101.

Turning to A111G A145C C150U, the reverse-splicing fitness came to 0.688.

As for A111G A145U C169G U176A, the reverse-splicing fitness was 0.0268.

With A111G A145U C169G U176C, the reverse-splicing fitness was 0.0429.

For A111G A145U C169G U176G, the reverse-splicing fitness was found to be 0.00522.

Turning to A111G A145G C169G U176C, the reverse-splicing fitness was 0.0596.

As to A111G A145G C169G U176A, the reverse-splicing fitness is 0.0326.

For A111G A145G C169G U176G, the reverse-splicing fitness was 0.00638.

Turning to A111G A145G C150A, the reverse-splicing fitness was determined as 0.517.

Consider A111G A145G C150U, for which the reverse-splicing fitness was 0.941.

As to A111G A145G C150G, the reverse-splicing fitness is 0.364.

A111G A145G C169G: the reverse-splicing fitness worked out at 0.118.

On to A111G A145G C169U, for which the reverse-splicing fitness came to 0.19.

For the variant A111G A145G C169A, the reverse-splicing fitness is 0.053.

As for A111G A145G C169A U176C, the reverse-splicing fitness came to 0.036.

As to A111G A145G C169A U176A, the reverse-splicing fitness was 0.0226.

As for A111G A145G C169A U176G, the reverse-splicing fitness was 0.00526.

Regarding A111G A145C C150G U176G, the reverse-splicing fitness is 0.0319.

For the variant A111G A145C C150G U176C, the reverse-splicing fitness was 0.212.

In the case of A111G A145C C150G U176A, the reverse-splicing fitness worked out at 0.17.

On to A111U A120C A145C C150G C169A U176A, for which the reverse-splicing fitness stood at 0.00803.

Regarding A111U A120C A145C C150G C169A U176C, the reverse-splicing fitness was 0.00519.

Consider A111U A120C A145C C150G C169A U176G, for which the reverse-splicing fitness was found to be 0.00509.

On to A111G A145C C150G C169U, for which the reverse-splicing fitness is 0.0255.

Turning to A111U A120C A145G C150G C169G, the reverse-splicing fitness came to 0.00738.

For A111U A120C A145G C150G C169U, the reverse-splicing fitness is 0.0226.

As to A111U A120C A145G C150G C169A, the reverse-splicing fitness was found to be 0.0087.

A111U A120C A145G C150A C169U U176G: the reverse-splicing fitness came to 0.00691.

Turning to A111U A120C A145G C150A C169U U176A, the reverse-splicing fitness was found to be 0.0208.

For the variant A111U A120C A145G C150A C169U U176C, the reverse-splicing fitness came out at 0.022.

Regarding A111G A145U C150U C169U U176G, the reverse-splicing fitness worked out at 0.00691.

For A111G A145U C150U C169U U176A, the reverse-splicing fitness is 0.0375.

Turning to A111G A145U C150U C169U U176C, the reverse-splicing fitness was determined as 0.056.

As for A111U A120C A145C, the reverse-splicing fitness worked out at 0.537.

Take A111U A120C A145G: the reverse-splicing fitness is 0.569.

On to A111G C150A C169A, for which the reverse-splicing fitness was 0.0135.

Regarding A111G C150A C169G, the reverse-splicing fitness was determined as 0.0174.

In the case of A111G C150A C169U, the reverse-splicing fitness came to 0.0262.
